Test results published in paper PMC11940775, “A Bifunctional Phosphoglucomutase/Phosphomannomutase from Thermococcus kodakarensis: Biophysical Analysis and Cryo-EM Structure” (Biomolecules, 2025).

Target: the molecule itself
Experiment: SEC; HiLoad 16/60 Superdex 200 pg, 50 mM HEPES pH 7.0 + 200 mM NaCl, against standard protein markers; self-association

B1: Phosphoglucomutase/phosphomannomutase from Thermococcus kodakarensis (PGMTk) (enzyme)
chain: MGKLFGTFGVRGIANEEITPEFALKIGMAFGTLLKREGRERPLVVVGRDTRVSGEMLKDALISGLLSTGCDVIDVGIAPTPAIQWATNHFNADGGAVITASHNPPEYNGIKLLEPNGMGLKKEREAIVEELFFSEDFHRAKWNEIGELRKEDIIKPYIEAIKNRVDVEAIKKRRPFVVVDTSNGAGSLTLPYLLRELGCKVVSVNAHPDGHFPARNPEPNEENLKGFMEIVKALGADFGVAQDGDADRAVFIDENGRFIQGDKTFALVADAVLRENGGGLLVTTIATSNLLDDIAKRNGAKVMRTKVGDLIVARALLENNGTIGGEENGGVIFPDFVLGRDGAMTTAKIVEIFAKSGKKFSELIDELPKYYQFKTKRHVEGDRKAIVAKVAELAEKKGYKIDTTDGTKIIFDDGWVLVRASGTEPIIRIFSEAKSEEKAREYLELGIKLLEEALKG
notes: Phosphoglucomutase/phosphomannomutase PGMTk, product of gene Tk1108 of Thermococcus kodakarensis, UniProt Q68BJ6; His6 and a TEV protease site were put upstream of the gene; also called Tk1108; TK1108; source: E. coli Rosetta 2(DE3)pLysS, purified (heat treatment at 85 °C, Ni-NTA, Superdex 200 gel filtration)
With B1 the “stoichiometry N” value was 4.
